Source: US20150152159A1
Like-named read-outs stand apart in the source and are kept apart here.

Tests used:
[1] = target: human growth hormone receptor on IM-9 cells (human) (UniProt P10912); experiment: cell-based or functional assay
[2] = target: human growth hormone receptor on IM-9 cells (human) (UniProt P10912)
[3] = target: human growth hormone receptor on IM-9 cells (human) (UniProt P10912); remark: listed apart in the source

Chain of UniProt P10912 (P10912 19-638): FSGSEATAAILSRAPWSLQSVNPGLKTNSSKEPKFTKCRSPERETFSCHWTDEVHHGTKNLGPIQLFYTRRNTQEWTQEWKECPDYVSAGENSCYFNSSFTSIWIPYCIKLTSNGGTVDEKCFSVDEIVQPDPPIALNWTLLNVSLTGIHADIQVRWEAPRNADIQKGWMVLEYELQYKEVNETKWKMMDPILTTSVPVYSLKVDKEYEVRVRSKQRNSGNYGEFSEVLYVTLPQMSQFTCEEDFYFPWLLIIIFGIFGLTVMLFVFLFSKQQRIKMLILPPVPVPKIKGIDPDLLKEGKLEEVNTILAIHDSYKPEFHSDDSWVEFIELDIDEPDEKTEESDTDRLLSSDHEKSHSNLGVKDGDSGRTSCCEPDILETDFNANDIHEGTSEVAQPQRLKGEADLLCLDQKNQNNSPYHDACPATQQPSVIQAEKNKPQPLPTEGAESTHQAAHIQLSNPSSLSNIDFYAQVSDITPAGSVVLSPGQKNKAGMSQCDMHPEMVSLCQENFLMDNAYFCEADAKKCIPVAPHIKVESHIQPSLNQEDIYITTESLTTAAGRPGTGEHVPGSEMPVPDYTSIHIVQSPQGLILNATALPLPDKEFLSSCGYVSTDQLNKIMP

Row | Substance | EC50 (nM), STAT5 phosphorylation in IM-9 cells [1] [nM] | EC50, STAT5 phosphorylation in IM-9 cells (MFI of PE, intracellular phospho-STAT5 staining) [2] [nM] | EC50, STAT5 phosphorylation in IM-9 cells (MFI of PE, intracellular phospho-STAT5 staining) [3] [nM]
1 | hGH G131pAF (from UniProt P01241 27-217) (ligand) | 0.8 | – | –
2 | hGH A155pAF (from UniProt P01241 27-217) (ligand) | 1.3 | – | –
3 | His-tagged hGH Y143pAF (from UniProt P01241 27-217) (ligand) | 0.8 | – | –
4 | hGH E88pAF (from UniProt P01241 27-217) (ligand) | 0.9 | – | –
5 | (His)F92pAF-5K (from UniProt P09466) (ligand) | – | 1.5 | –
6 | hGH F92pAF (from UniProt P01241 27-217) (ligand) | 0.8 | 0.9 | 1.1
7 | hGH K140pAF (from UniProt P01241 27-217) (ligand) | 2.7 | – | –
8 | hGH P133pAF (from UniProt P01241 27-217) (ligand) | 1 | – | –
9 | hGH S95pAF (from UniProt P01241 27-217) (ligand) | 16.7 | – | –
10 | hGH Y111pAF (from UniProt P01241 27-217) (ligand) | 1 | – | –
11 | hGH F139pAF (from UniProt P01241 27-217) (ligand) | 3.3 | – | –
12 | hGH Y103pAF (from UniProt P01241 27-217) (ligand) | 130000 | – | –
13 | hGH R134pAF (from UniProt P01241 27-217) (ligand) | 0.9 | – | –
14 | rat GH WT (from UniProt P01244 27-216) (ligand) | > 200000 | – | –
15 | (His)F92pAF-20K (from UniProt P09466) (ligand) | – | 4.6 | –
16 | hGH Q91pAF (from UniProt P01241 27-217) (ligand) | 2 | – | –
17 | hGH N99pAF (from UniProt P01241 27-217) (ligand) | 8.5 | – | –
18 | hGH T135pAF (from UniProt P01241 27-217) (ligand) | 0.9 | – | –
19 | hGH G136pAF (from UniProt P01241 27-217) (ligand) | 1.4 | – | –
20 | (His)F92-pAF-30K (ligand) | – | 4.1 | –
